First the molecules themselves.
B1: CPEB3 Ribozyme (parent)
chain: GGGGGCCACAGCAGAAGCGUUCACGUCGCGGCCCCUGUCAGAUUCUGGUGAAUCUGCGAAUUCUGCUGU

The variants in this data set derive from B1. Nature of the data set: self-cleavage, relative activity (ratio to wild type); higher = more cleavage; co-transcriptional.
GGGGGUCACAGCAGAAGCGUUCACGUCGCGGCCCCUGUAAGAUUCUGGUGAAUCUGCGAAUUCUGCUGU [C6U C39A]: the self-cleavage was 0.852.

Consider GGGGGUCACAGCAGAAGCGUUCACGGCGCGGCCCCUGUCAGAUUCUGGUGAAUCUGCGAAUUCUGCUGU [C6U U26G], for which the self-cleavage came out at 0.91.

Take GGGGGCAACAGCAGACGCGUUCACGUCGCGGCCCCUGUCAGAUUCUGGUGAAUCUGCGAAUUCUGCUGU [C7A A16C]: the self-cleavage came to 0.0791.

GGGGGCAACAGCAGAGGCGUUCACGUCGCGGCCCCUGUCAGAUUCUGGUGAAUCUGCGAAUUCUGCUGU [C7A A16G]: the self-cleavage was determined as 0.383.

On to GGGGGUCACAGCAGAAGCGUUCACGUCGCGGCCCCUGUCAGAUUCUGGUGAAUCUGCUAAUUCUGCUGU [C6U G58U], for which the self-cleavage was 1.01.

As to GGGGGUCACAGCAGAAGCGUUCACGUCGCGGCCCCUGUCAGAUGCUGGUGAAUCUGCGAAUUCUGCUGU [C6U U44G], the self-cleavage is 1.01.

Consider GGGGGCAAAAGCAGAAGCGUUCACGUCGCGGCCCCUGUCAGAUUCUGGUGAAUCUGCGAAUUCUGCUGU [C7A C9A], for which the self-cleavage was found to be 0.97.

Turning to GGGGGCAACAGCAGAAGUGUUCACGUCGCGGCCCCUGUCAGAUUCUGGUGAAUCUGCGAAUUCUGCUGU [C7A C18U], the self-cleavage is 0.224.

For GGGGGCAACAGCAGAAGGGUUCACGUCGCGGCCCCUGUCAGAUUCUGGUGAAUCUGCGAAUUCUGCUGU [C7A C18G], the self-cleavage worked out at 0.159.

For GGGGGUCACAGCAGAAGCGUUCACGUCGCGGCCCCUGUCAGAUUCUGGUCAAUCUGCGAAUUCUGCUGU [C6U G50C], the self-cleavage came to 1.02.

As for GGGGGUCACAGCAGAAGCGUUCACGUCGCGGCCCCUGUCAGAUUCUGGUUAAUCUGCGAAUUCUGCUGU [C6U G50U], the self-cleavage was 0.979.

Turning to GGGGGUCACAGCAGAAGCGUUCACAUCGCGGCCCCUGUCAGAUUCUGGUGAAUCUGCGAAUUCUGCUGU [C6U G25A], the self-cleavage was determined as 0.141.

On to GGGGGUCACAGCAGAAGCGUUCACUUCGCGGCCCCUGUCAGAUUCUGGUGAAUCUGCGAAUUCUGCUGU [C6U G25U], for which the self-cleavage is 0.18.

For GGGGGUCACAGCAGAAGCGUUCACGUCGCGGCCCCUGACAGAUUCUGGUGAAUCUGCGAAUUCUGCUGU [C6U U38A], the self-cleavage amounted to 0.916.

On to GGGGGCAACAGCAGAAGCGUUCACGUCGCGGCCCCUAUCAGAUUCUGGUGAAUCUGCGAAUUCUGCUGU [C7A G37A], for which the self-cleavage came to 0.133.

As to GGGGGCAACAGCAGAAGCGUUCACGUCGCGGCCCCUCUCAGAUUCUGGUGAAUCUGCGAAUUCUGCUGU [C7A G37C], the self-cleavage came out at 0.122.

GGGGGCAACAGCAGAAGCGUUCACGUCGCGGCCCCUUUCAGAUUCUGGUGAAUCUGCGAAUUCUGCUGU [C7A G37U]: the self-cleavage came out at 0.0728.

As for GGGGGCAACAGCAGAAGCGUUCACGUCGAGGCCCCUGUCAGAUUCUGGUGAAUCUGCGAAUUCUGCUGU [C7A C29A], the self-cleavage worked out at 0.0674.

For GGGGGCAACAGCCGAAGCGUUCACGUCGCGGCCCCUGUCAGAUUCUGGUGAAUCUGCGAAUUCUGCUGU [C7A A13C], the self-cleavage came out at 0.277.

Turning to GGGGGUCACAGCAGAAGCGUUCACGUCGCGGCCCCUGUCAGAUUCUGGUGAAUUUGCGAAUUCUGCUGU [C6U C54U], the self-cleavage amounted to 1.03.

Consider GGGGGUCACAGCAGAAGCGUUCACGUCGCGGCCCCUGUCAGAUUCUGGUGAAUCUGCGAAUCCUGCUGU [C6U U62C], for which the self-cleavage came out at 0.811.

In the case of GGGGGCAACAGCAGAAGCAUUCACGUCGCGGCCCCUGUCAGAUUCUGGUGAAUCUGCGAAUUCUGCUGU [C7A G19A], the self-cleavage worked out at 0.14.

Turning to GGGGGUCACAGCAGAAGCGUUCACGUCGCGGCCCCUGUCAUAUUCUGGUGAAUCUGCGAAUUCUGCUGU [C6U G41U], the self-cleavage came to 0.817.

GGGGGCAACAGCAGAAGCGUUCACGUCGCGGCCCCUGUCAGAUUCUCGUGAAUCUGCGAAUUCUGCUGU [C7A G47C]: the self-cleavage was found to be 0.593.

Take GGGGGCAACAGCAGAAGCGUUCACGUCGCGGCCCCUGUCAGAUUCUAGUGAAUCUGCGAAUUCUGCUGU [C7A G47A]: the self-cleavage came out at 0.612.

As for GGGGGCAACAGCAGAAGCGUUCACGUCGCGGCCCCUGUCAGAUUCUUGUGAAUCUGCGAAUUCUGCUGU [C7A G47U], the self-cleavage was determined as 0.637.

Regarding GGGGGUCACAGCAGAAGCGUUCACGUCGCGGCCCCUGUCAGAUUCUGGUGAAUCUGCGAAUUAUGCUGU [C6U C63A], the self-cleavage came to 0.806.

For GGGGGCAACAGCAGAAGCGUUCACGUCGCGGCCCCUGUCAGAUUCUGGUGAAUGUGCGAAUUCUGCUGU [C7A C54G], the self-cleavage is 0.101.

Take GGGGGUCACAGCAGAAGCGUACACGUCGCGGCCCCUGUCAGAUUCUGGUGAAUCUGCGAAUUCUGCUGU [C6U U21A]: the self-cleavage came out at 0.997.

As for GGGGGUCACAGCAUAAGCGUUCACGUCGCGGCCCCUGUCAGAUUCUGGUGAAUCUGCGAAUUCUGCUGU [C6U G14U], the self-cleavage amounted to 0.616.

For the variant GGGGGUCACAGCACAAGCGUUCACGUCGCGGCCCCUGUCAGAUUCUGGUGAAUCUGCGAAUUCUGCUGU [C6U G14C], the self-cleavage amounted to 0.458.

With GGGGGCAACUGCAGAAGCGUUCACGUCGCGGCCCCUGUCAGAUUCUGGUGAAUCUGCGAAUUCUGCUGU [C7A A10U], the self-cleavage is 0.912.

In the case of GGGGGCAACAGCAGAAGCGUUCACGUCGCGGCCCCUGUCGGAUUCUGGUGAAUCUGCGAAUUCUGCUGU [C7A A40G], the self-cleavage was 0.416.

GGGGGCAACAGCAGAAGCGUUCACGUCGCGGCCCCUGUCAGAUUCUGCUGAAUCUGCGAAUUCUGCUGU [C7A G48C]: the self-cleavage turned out to be 0.681.

With GGGGGCAACAGCAGAAGCGUUCACGUCGCGGCCCCUGUGAGAUUCUGGUGAAUCUGCGAAUUCUGCUGU [C7A C39G], the self-cleavage was 0.428.

For the variant GGGGGCAACAGCAGAAGCGUUCACGUCGCGGCCCAUGUCAGAUUCUGGUGAAUCUGCGAAUUCUGCUGU [C7A C35A], the self-cleavage worked out at 0.126.

As for GGGGGCAACAGCAGAAGCGUUCACGUCGCGGCCCCUGUCAGAUUCUGGUGAAUCUGCGAGUUCUGCUGU [C7A A60G], the self-cleavage came to 0.272.

In the case of GGGGGUCACAGCAGAAGCGUUCACGUCGCGGCCCCUGUCAGACUCUGGUGAAUCUGCGAAUUCUGCUGU [C6U U43C], the self-cleavage worked out at 0.902.

GGGGGUCACAGCAGAAGCGUUCACGUCGCGGCCCCUGUCAGAGUCUGGUGAAUCUGCGAAUUCUGCUGU [C6U U43G]: the self-cleavage is 0.815.

These data come from the RNAGym collection of RNA variant scans (doi:10.7554/elife.80360).
